Target: T1, FANCD2 (human, UniProt Q9BXW9 1-1451)
T1 construct: The cryo-EM methods say only 'purified FANCD2'; The ubiquitination and deubiquitination reactions used N-terminally FLAG-tagged FANCD2; the functional rows use this molecule for it (for the USP1 rows in its K561-ubiquitinated form, D2Ub); Constructs as in Arkinson et al 2018 and Rennie et al 2020; also called D2^WT; source: Sf21 insect cells, purified (NiNTA, anion exchange, gel filtration)
Assay: cryo-EM structure; ubiquitinated His6-V5-FANCI mixed with FANCD2 at 1:1 molar ratio, 61 bp dsDNA added at 1:1; 20 mM Tris pH 8.0, 150 mM NaCl, 2 mM DTT; 4.1 Å global resolution
Conditions: both partners purified

T1 sequence (Q9BXW9 whole entry): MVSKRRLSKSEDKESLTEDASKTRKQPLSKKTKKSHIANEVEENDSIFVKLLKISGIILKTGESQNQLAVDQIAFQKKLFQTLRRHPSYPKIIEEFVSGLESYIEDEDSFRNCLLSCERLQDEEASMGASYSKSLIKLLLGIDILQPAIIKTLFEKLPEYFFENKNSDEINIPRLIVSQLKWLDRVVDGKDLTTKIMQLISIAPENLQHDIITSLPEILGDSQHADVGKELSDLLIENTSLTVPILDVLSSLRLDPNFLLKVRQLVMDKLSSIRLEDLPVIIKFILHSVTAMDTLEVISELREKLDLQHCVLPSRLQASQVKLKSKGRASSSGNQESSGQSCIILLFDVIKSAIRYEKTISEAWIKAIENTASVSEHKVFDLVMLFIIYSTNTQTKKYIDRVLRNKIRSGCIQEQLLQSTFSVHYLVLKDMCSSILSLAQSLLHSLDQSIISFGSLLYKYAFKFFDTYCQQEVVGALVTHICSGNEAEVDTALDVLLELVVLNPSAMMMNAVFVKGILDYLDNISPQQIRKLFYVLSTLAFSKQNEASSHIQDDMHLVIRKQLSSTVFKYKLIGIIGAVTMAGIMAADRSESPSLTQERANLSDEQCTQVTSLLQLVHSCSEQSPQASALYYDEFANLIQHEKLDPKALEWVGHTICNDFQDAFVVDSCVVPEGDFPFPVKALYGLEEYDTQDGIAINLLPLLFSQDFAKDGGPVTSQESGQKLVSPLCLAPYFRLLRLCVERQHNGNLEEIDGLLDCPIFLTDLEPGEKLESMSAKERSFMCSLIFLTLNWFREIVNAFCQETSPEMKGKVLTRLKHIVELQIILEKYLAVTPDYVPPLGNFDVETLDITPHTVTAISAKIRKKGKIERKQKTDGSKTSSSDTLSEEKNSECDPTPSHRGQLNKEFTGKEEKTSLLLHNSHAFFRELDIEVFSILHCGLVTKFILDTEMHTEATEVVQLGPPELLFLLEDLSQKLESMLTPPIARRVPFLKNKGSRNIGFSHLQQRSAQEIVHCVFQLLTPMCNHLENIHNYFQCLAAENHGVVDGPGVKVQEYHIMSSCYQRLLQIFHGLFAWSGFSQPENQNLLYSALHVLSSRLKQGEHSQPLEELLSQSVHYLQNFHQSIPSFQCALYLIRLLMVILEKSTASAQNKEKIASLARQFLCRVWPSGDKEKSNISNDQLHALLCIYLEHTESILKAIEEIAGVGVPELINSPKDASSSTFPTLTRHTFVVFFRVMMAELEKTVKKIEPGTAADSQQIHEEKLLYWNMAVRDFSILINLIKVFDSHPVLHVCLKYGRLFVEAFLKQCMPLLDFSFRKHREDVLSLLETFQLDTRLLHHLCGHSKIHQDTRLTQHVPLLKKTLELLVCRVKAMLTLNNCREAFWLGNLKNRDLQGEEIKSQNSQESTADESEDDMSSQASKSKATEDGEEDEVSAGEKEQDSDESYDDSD

B1: FANCI (the FANCI chain of ubiquitinated His6‐V5‐FANCI) (natural protein, human, UniProt Q9NVI1 1-1328, looked up)
chain: MDQKILSLAAEKTADKLQEFLQTLREGDLTNLLQNQAVKGKVAGALLRAIFKGSPCSEEAGTLRRRKIYTCCIQLVESGDLQKEIASEIIGLLMLEAHHFPGPLLVELANEFISAVREGSLVNGKSLELLPIILTALATKKENLAYGKGVLSGEECKKQLINTLCSGRWDQQYVIQLTSMFKDVPLTAEEVEFVVEKALSMFSKMNLQEIPPLVYQLLVLSSKGSRKSVLEGIIAFFSALDKQHNEEQSGDELLDVVTVPSGELRHVEGTIILHIVFAIKLDYELGRELVKHLKVGQQGDSNNNLSPFSIALLLSVTRIQRFQDQVLDLLKTSVVKSFKDLQLLQGSKFLQNLVPHRSYVSTMILEVVKNSVHSWDHVTQGLVELGFILMDSYGPKKVLDGKTIETSPSLSRMPNQHACKLGANILLETFKIHEMIRQEILEQVLNRVVTRASSPISHFLDLLSNIVMYAPLVLQSCSSKVTEAFDYLSFLPLQTVQRLLKAVQPLLKVSMSMRDCLILVLRKAMFANQLDARKSAVAGFLLLLKNFKVLGSLSSSQCSQSLSVSQVHVDVHSHYNSVANETFCLEIMDSLRRCLSQQADVRLMLYEGFYDVLRRNSQLANSVMQTLLSQLKQFYEPKPDLLPPLKLEACILTQGDKISLQEPLDYLLCCIQHCLAWYKNTVIPLQQGEEEEEEEEAFYEDLDDILESITNRMIKSELEDFELDKSADFSQSTSIGIKNNICAFLVMGVCEVLIEYNFSISSFSKNRFEDILSLFMCYKKLSDILNEKAGKAKTKMANKTSDSLLSMKFVSSLLTALFRDSIQSHQESLSVLRSSNEFMRYAVNVALQKVQQLKETGHVSGPDGQNPEKIFQNLCDITRVLLWRYTSIPTSVEESGKKEKGKSISLLCLEGLQKIFSAVQQFYQPKIQQFLRALDVTDKEGEEREDADVSVTQRTAFQIRQFQRSLLNLLSSQEEDFNSKEALLLVTVLTSLSKLLEPSSPQFVQMLSWTSKICKENSREDALFCKSLMNLLFSLHVSYKSPVILLRDLSQDIHGHLGDIDQDVEVEKTNHFAIVNLRTAAPTVCLLVLSQAEKVLEEVDWLITKLKGQVSQETLSEEASSQATLPNQPVEKAIIMQLGTLLTFFHELVQTALPSGSCVDTLLKDLCKMYTTLTALVRYYLQVCQSSGGIPKNMEKLVKLSGSHLTPLCYSFISYVQNKSKSLNYTGEKKEKPAAVATAMARVLRETKPIPNLIFAIEQYEKFLIHLSKKSKVNLMQHMKLSTSRDFKIKGNILDMVLREDGEDENEEGTASEHGGQNKEPAKKKRKK
modifications: K523 isopeptide-linked to G76 of ubiquitin
notes: The FANCI chain of m1, written on its own for its contacts with FANCD2 in the structure; source: Sf21 insect cells, purified (NiNTA, anion exchange, gel filtration); ubiquitinated in vitro; not shown: His6, N-terminal, kept; V5, N-terminal, kept
binding result: binds

Source: article PMC9890228 (The EMBO Journal, 2022)
